Results: patent publication US20090246756A1, “Thermostable polypeptide having polynucleotide kinase activity and/or phosphatase activity” (Prokaria Ehe, priority 2004, published 2009)
Several values for one entry are separate records, joined by “and”; a condition that tells them apart may be missing. Equal values may be shown once. Entries after “also recorded” stand apart in the source; their conditions may differ.

Key:
ssDNA oligomer = assay: Effect of ADP on 5′ kinase, dephosphorylation and phosphate exchange reactions; type: biochemical; details: for effect of ADP on 5′ kinase activity: 5′ hydroxylated ssDNA, increasing ADP; for phosphate exchange reaction on 5′ phosphorylated oligomer: independent of ADP concentration, 0 to 1 mM ADP; for effect of ADP on dephosphorylation of 5′ phosphorylated ssDNA: only ADP and 32P-labeled oligomer, no ATP
Method: Effect of ADP was tested on three kind of reactions i) exchange reaction ii) 5′ kinase reaction and iii) dephosphosphorylation. This was done, by titrating different amounts of ADP to reaction mixtures containing i) 10 μM phosphorylated ssDNA oligo 10 μM γ-^32P-ATP, ii) 10 μM 5′ hydroxylated ssDNA oligomer with 10 μM γ-^32P-ATP, and iii) with 5′ ^32P-labeled ssDNA oligomer without ATP.
The effect of addition of ADP to 5′ kinase activity, dephosphorylation, and phosphate exchange was studied in controlled assay with 10:10 μM ATP and oligomer and by titrating the ADP concentration. […] On the other hand, when labelling an already phosphorylated oligomer, the exchange reaction was overall about 5-8% independent of the ADP concentration, from 0 to 1 mM ADP.

[1] = tested on: partial mircococcal nuclease digested calf thymus DNA or DNA/RNA oligomers; assay: 5′ kinase standard PNK assay (conversion of γ-32P-ATP); type: biochemical; details: standard assay at different temperatures for one hour
d(A20) = assay: 5′ kinase reaction, ssDNA oligomer titration and labelling; type: biochemical
Method: (§1) The standard PNK assay developed by Richardsson (Richardson, C. C. (1965) Proc Natl Acad Sci USA 54, 158-165) that measures conversion of γ-32P-ATP, was used for characterization of the RM378 PNK with some minor modifications. Standard reaction conditions were: 50 mM MOPS buffer pH 8.5, 1 mM DTT, 10 mM MgCl2, 25 μg/ml BSA, 1 mM spermidine and 5% PEG6000, 100 μM ATP (mixture of normal and γ-32P-ATP) and 0.5 mg/ml partial mircococcal nuclease digested calf thymus DNA or 50-100 μM DNA/RNA oligomers, and 0.0001-0.001 mg/ml PNK enzyme, incubated at 70° C. for 15-30 minutes.
(§2) Titration curves for ATP, r(A20) and single stranded d(A20) oligomers were done to calculate Km values and find the maximum velocity of the 5′ kinase reaction. The results are shown for ATP in FIG. 4B and for, r(A20) and d(A20) in FIGS. 4C.
(§3) To investigate the completeness of the 5′ kinase reaction, both r(A20) and d(A20) oligos at 20 μM concentration were labeled in a 10 μM ^32P labeled ATP mixture under optimal conditions. […] The RM378 PNK is therefore an excellent enzyme for nucleic acid labeling at elevated temperatures.

[2] = 5′ kinase reaction, ATP titration; type: biochemical; details: Lineweaver-Burk plot
Method: as §1, §2

[3] = tested on: partial mircococcal nuclease digested calf thymus DNA or DNA/RNA oligomers; assay: 5′ kinase standard PNK assay (conversion of γ-32P-ATP); type: biochemical; details: for increase in 5′ kinase activity by PEG6000: 5-10% PEG6000; for 5′ kinase activity with Mn^2+ compared to Mg^2+: divalent cation essential
Method: The 5′-kinase activity may be determined by an appropriate assay such as an assay developed for T4 PNK that measures conversion of ATP labelled with radioactive gamma-phosphate group (Richardson, C. C. (1965) Proc Natl Acad Sci U.S.A. 54, 158-165). The standard assay may be modified according to the requirement of a specific PNK. For example, for RM378 PNK the typical reaction conditions are 50 mM MOPS buffer pH 8.5, 1 mM DTT, 10 mM MgCl2, 25 μg/ml BSA, 1 mM spermidine and 5% PEG6000, 100 μM ATP (mixture of normal and γ-32P-ATP) and 0.5 mg/ml partial micrococcal nuclease digested calf thymus DNA or 50-100 μM DNA/RNA oligomers, and 0.0001-0.001 mg/ml PNK enzyme. The reaction mixture is then incubated at 70° C. for 15-30 minutes.
as §1

r(A20) = assay: 5′ kinase reaction, RNA oligomer titration and labelling; type: biochemical
Method: as §1, §2, §3

[4] = 3′ phosphohydrolase assay (phosphate release, Biomol Green) on CAMP; details: for 3′ phosphohydrolase activity on CAMP, enzyme comparison: 20 units enzyme, pH 6, 2 hours, 37° C. (T4) / 70° C. (RM378)
Method: (§4) For example, the following assay can be used: in a potassium acetate buffer, pH 6.0, with 5 mM MnCl2, 1 mM DTT, and 10 mM KCl2, the enzyme is incubated (at 0.05 mg enzyme/ml) with substrate, such as 0.1-5 mM 3′-thymidine mono-phosphate (3′-TMP) or cyclic 2′-3′cyclic adenosine mono-phosphate (cAMP), for 30-60 minutes at suitable temperature, for example at 70-75° C. for RM378 kinase. The reaction is then quenched by adding 90 μL of Biomol Green reagent (Biomol Research Laboratories, Plymouth Meeting, Pa.) to 10 μL reaction. The release of phosphate is then measured at A 620 nm in a spectrophotometer and compared to a phosphate standard curve.
(§5) After determination of pH, cation and apparent temperature optimum, the standard phosphohydrolase assay was: Potassium acetate buffer pH 6.0, 5 mM MnCl2, 1 mM DTT, 10 mM KCl2, 0.1-5 mM CAMP and 0.05 mg/ml PNK. Reaction time was 30-60 minutes at 70-75° C. The reaction was quenched by adding 90 μL of Biomol Green reagent (Biomol Research Laboratories, Plymouth Meeting, Pa.) to 10 μL reaction. The release of phosphate was measured at A 620 nm in a Sunrise Absorbance Reader (Tecan Group Ltd, Maennedorf, Switzerland) and compare to a phosphate standard curve.
(§6) The characterization of the phosphohydrolase activity was done using two substrates: 3′-thymidine mono-phosphate (3′TMP) and cyclic 2′-3′cyclic adenosine mono-phosphate (cAMP). Determination of pH optimum was done with MOPS and potassium acetate buffers using 0.1 mM CAMP and 0.05 mg/ml PNK, apparent T optimum was also done under the standard condition by assaying at different temperatures. Protein concentration curve was done with CAMP at pH 6 in K-acetate buffer and different amount of PNK. Substrate concentration curves were done for CAMP and 3′TMP, under the standard conditions using different amount of substrates.
(§7) Comparison was done between RM378 and T4 PNK using CAMP, 3′TMP and d(A15)—PO4^− oligomer as substrates, all in 0.1 mM concentration with 20 units of the enzymes in 20 μL reaction volumes using potassium acetate buffer pH 6 with both Mg^2+ and Mn^2+ as the divalent cation. The reactions were carried out for 2 hours at 37° C. and 70° C. for T4 and RM378 PNK, respectively.

d(A15)—PO4^− oligomer = assay: 3′ phosphohydrolase comparison of RM378 and T4 PNK on 3′ phosphorylated oligomer; type: biochemical; details: 0.1 mM substrate, 20 units enzyme, pH 6, 2 hours, 37° C. (T4) / 70° C. (RM378)
Method: as §7

[5] = 3′ phosphohydrolase assay (phosphate release, Biomol Green) on 3′TMP; type: biochemical
Method: as §4, §5, §6
Comparison was done between RM378 and T4 PNK using CAMP, 3′TMP and d(A15)—PO4^− oligomer as substrates, all in 0.1 mM concentration with 20 units of the enzymes in 20 μL reaction volumes using potassium acetate buffer pH 6 with both Mg^2+ and Mn^2+ as the divalent cation. […]

B1: RM378 PNK: novel thermostable polynucleotide kinase (5′-kinase and 3′-phosphatase activity) from the thermophilic bacteriophage RM378, SEQ ID NO: 2 (protein)
chain: MPNFITNIRNSRFKEVLTEMYHCHHESEYHLEGNVLNHTLMVLQVVDKITADHREQTNLSLTALLHDSGKPYTRVVERGRVMFPGHEGVSTYIAPLLLCEVLRDSLITPKDAIQILYGVNYHMLHWKNPNLFMRLFTEMVNYTCLYNFLKKFNQCDLKGRVSTKPQKQEFPVIHYFENTPIGTVERHVYFMIGVPGSGKSTFLQKVGEGAIVSRDEIMMEYAAEIGITGDYNTVFREIHNNPMHKTKVNNRYMNAFRKAVEENEKVFVDATNMSYKSRRRFYNALRRDIAETVGYHYIVMLPDYFTCIERAENREGKSISREVVTDIARSLLLPCREHPNSIDTTIYMSDGHDEHVLRVAW
modifications: Bacteriophage RM378; HDmotif (66)..(67) HD motif is characteristic of HD phophohydrolase family of enzymes
For B1, the “effect of ADP on 5′ kinase activity” value (ssDNA oligomer) was “inhibited as the concentration of ADP increased”, the “effect of ADP on 5′ kinase activity” value (ssDNA oligomer; listed as PNK) was “decreased with increasing ADP concentration” and the “ADP concentration giving complete inhibition of 5′ kinase activity” value (ssDNA oligomer; 10:10 μM ATP and oligomer) was 50 µM. For the same molecule, the “phosphate exchange reaction on 5′ phosphorylated oligomer” value (ssDNA oligomer) was 3-8%, the “phosphate exchange reaction on 5′ phosphorylated oligomer” value (ssDNA oligomer; listed as PNK) was 5-8% and the “effect of ADP on dephosphorylation of 5′ phosphorylated ssDNA” value (ssDNA oligomer) was “The dephosphorylation increased as the ADP concentration increased”. For the same molecule, the “effect of ADP on dephosphorylation of 5′ phosphorylated ssDNA” value (ssDNA oligomer; listed as PNK) was “the level of dephosphorylation increased as the ADP concentration was increased”, the “apparent temperature optimum of 5′ kinase activity” value [1] was 65-70 °C and the “completeness of 5′ kinase labelling reaction, DNA” value (d(A20); 20 μM d(A20), 10 μM 32P-labeled ATP, 70° C., 30 min) was “the ATP was depleted; also recorded: completely depleted the ATP when using 5 U per reaction”. The “Vmax of 5′ kinase reaction on d(A20)” value (d(A20); Example 2) was 220 μmolmg^−1h^−1, the “Vmax of 5′ kinase activity on DNA” value (d(A20); FIG. 6C legend) was 160 µmol/h/mg and the “5′ kinase activity on ssDNA compared to RNA” value (d(A20); d(A20) versus r(A20)) was “somewhat better activity on ssDNA when compared to RNA”. For the same molecule, the Km (d(A20); single stranded d(A20), read-out: Km for DNA, 5′ kinase reaction) was ~1.3 µM and 1.5 µM, the Km [2] was 20 µM and the “effect of spermidine on 5′ kinase activity” value [3] was “limited”. For the same molecule, the “increase in 5′ kinase activity by PEG6000” value [3] was “multi-fold”, the “increase in 5′ kinase activity by PEG6000” value ([3]; listed as PNK) was 3-4 fold and 4 fold and the “Mg^2+ concentration at which maximum 5′ kinase activity was reached” value ([3]; Mg^2+) was 100 µM. For the same molecule, the “Mn^2+ concentration at which maximum 5′ kinase activity was reached” value ([3]; Mn^2+) was 10 µM, the “effect of Mn^2+ concentration over 100 μM on 5′ kinase reaction” value ([3]; Mn^2+ over 100 μM) was “severely inhibited the reaction” and the “effect of PEG6000 at higher concentrations on 5′ kinase reaction” value ([3]; PEG6000 above 5-10%) was “inhibited the 5′ kinase reaction at higher concentrations”. For the same molecule, the “effect of NaCl and KCl on PNK activity” value ([3]; concentrations higher than 10 mM) was “steady decrease in activity”, the “5′ kinase activity with Mn^2+ compared to Mg^2+” value [3] was “both Mg2+ and Mn2+ work equally well” and the “5′ kinase activity with Mn^2+ compared to Mg^2+” value ([3]; listed as PNK) was “Activity was similar for Mn^2+ and Mg^2+”. The “completeness of 5′ kinase labelling reaction, RNA” value (r(A20); 20 μM r(A20), 10 μM 32P-labeled ATP, 70° C., 30 min) was “the ATP was depleted; also recorded: completely depleted the ATP when using 5 U per reaction”, the “Vmax of 5′ kinase reaction on r(A20)” value (r(A20); Example 2) was 160 μmolmg^−1h^−1 and the “Vmax of 5′ kinase activity on RNA” value (r(A20); FIG. 6C legend) was 220 µmol/h/mg. The Km (r(A20); r(A20)) was ~1.5 µM and 1.3 µM, the “pH range with >40% 3′ phosphohydrolase activity” value [4] was 5.5-7.0 pH and the “temperature range with good (>50%) 3′ phosphohydrolase activity” value [4] was 65-80 °C. The “3′ phosphohydrolase activity on CAMP, enzyme comparison” value ([4]; 0.1 mM substrate) was “much better activity on the CAMP versus 3′-TMP”, the “3′ phosphohydrolase activity on CAMP, enzyme comparison” value ([4]; 0.1 mM substrate, listed as RM378) was “high activity on CAMP” and the “higher 3′ phosphohydrolase activity with Mn^2+ than Mg^2+” value ([4]; CAMP as substrate, 1 mM cation) was 5-10 fold. For the same molecule, the “3′ phosphohydrolase activity in presence of Mg2+, enzyme comparison” value ([4]; Mg2+ as cation, 0.1 mM substrate) was “little activity in presence of Mg2+”, the “apparent temperature optimum of 3′ phosphohydrolase activity” value ([4]; measured for one hour) was 75 °C and the “pH optimum of 3′ phosphohydrolase activity” value ([4]; potassium acetate pH 4-6 and MOPS pH 6-9, 0.1 mM CAMP, 0.05 mg/ml PNK) was roughly 6 pH. For the same molecule, the Km ([4]; read-out: Km for CAMP, 3′ phosphohydrolase reaction, standard conditions, Mn2+) was 700 µM, the “Vmax of 3′ phosphohydrolase reaction on CAMP” value ([4]; standard conditions, Mn2+) was 13.5 μmolmg^−1h^−1 and the “3′ phosphohydrolase activity on CAMP relative to 3′TMP” value ([4]; substrate titration, standard assay conditions with Mn2+) was “much more phosphohydrolase activity on CAMP compared to 3′TMP; also recorded: several-fold higher on CAMP than 3′TMP”. The “3′ phosphohydrolase activity on d(A15)-3′PO4− oligomer, enzyme comparison” value (d(A15)—PO4^− oligomer) was “no detectable activity on the oligomer”, the “3′ phosphohydrolase activity on d(A15)-3′PO4− oligomer, enzyme comparison” value (d(A15)—PO4^− oligomer; listed as RM378) was “no activity on the oligomer” and the “3′ phosphohydrolase activity on 3′TMP, enzyme comparison” value ([5]; 0.1 mM substrate, 20 units enzyme, pH 6, 2 hours, 37° C. (T4) / 70° C. (RM378)) was “some activity on 3′TMP”. For the same molecule, the “Vmax of 3′ phosphohydrolase reaction on 3′TMP” value ([5]; standard conditions, Mn2+) was 1.5 μmolmg^−1h^−1 and the Km ([5]; standard conditions, Mn2+, read-out: Km for 3TMP, 3′ phosphohydrolase reaction) was 60 µM.
